# According to IntAct's records for PubMed 31515488:
# B1: mRNA-decapping enzyme 1A (Homo sapiens), Q9NPI6 (parent)
# chain: MEALSRAGQEMSLAALKQHDPYITSIADLTGQVALYTFCPKANQWEKTDIEGTLFVYRRSASPYHGFTIVNRLNMHNLVEPVNKDLEFQLHEPFLLYRNASLSIYSIWFYDKNDCHRIAKLMADVVEEETRRSQQAARDKQSPSQANGCSDHRPIDILEMLSRAKDEYERNQMGDSNISSPGLQPSTQLSNLGSTETLEEMPSGSQDKSAPSGHKHLTVEELFGTSLPKEQPAVVGLDSEEMERLPGDASQKEPNSFLPFPFEQLGGAPQSETLGVPSAAHHSVQPEITTPVLITPASITQSNEKHAPTYTIPLSPVLSPTLPAEAPTAQVPPSLPRNSTMMQAVKTTPRQRSPLLNQPVPELSHASLIANQSPFRAPLNVTNTAGTSLPSVDLLQKLRLTPQHDQIQTQPLGKGAMVASFSPAAGQLATPESFIEPPSKTAAARVAASASLSNMVLAPLQSMQQNQDPEVFVQPKVLSSAIPVAGAPLVTATTTAVSSVLLAPSVFQQTVTRSSDLERKASSPSPLTIGTPESQRKPSIILSKSQLQDTLIHLIKNDSSFLSTLHEVYLQVLTKNKDNHNL
# partner: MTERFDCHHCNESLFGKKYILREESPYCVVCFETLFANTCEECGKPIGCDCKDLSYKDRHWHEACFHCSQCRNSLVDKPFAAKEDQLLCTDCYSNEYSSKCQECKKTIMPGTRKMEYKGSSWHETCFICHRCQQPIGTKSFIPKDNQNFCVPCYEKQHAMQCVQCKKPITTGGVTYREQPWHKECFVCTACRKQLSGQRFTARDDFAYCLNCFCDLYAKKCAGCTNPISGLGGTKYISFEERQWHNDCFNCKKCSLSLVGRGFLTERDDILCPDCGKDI
# B2: Farnesyl pyrophosphate synthase (Homo sapiens), P14324 (parent)
# chain: MPLSRWLRSVGVFLLPAPYWAPRERWLGSLRRPSLVHGYPVLAWHSARCWCQAWTEEPRALCSSLRMNGDQNSDVYAQEKQDFVQHFSQIVRVLTEDEMGHPEIGDAIARLKEVLEYNAIGGKYNRGLTVVVAFRELVEPRKQDADSLQRAWTVGWCVELLQAFFLVADDIMDSSLTRRGQICWYQKPGVGLDAINDANLLEACIYRLLKLYCREQPYYLNLIELFLQSSYQTEIGQTLDLLTAPQGNVDLVRFTEKRYKSIVKYKTAFYSFYLPIAAAMYMAGIDGEKEHANAKKILLEMGEFFQIQDDYLDLFGDPSVTGKIGTDIQDNKCSWLVVQCLQRATPEQYQILKENYGQKEAEKVARVKALYEELDLPAVFLQYEEDSYSHIMALIEQYAAPLPPAVFLGLARKIYKRRK
# partner: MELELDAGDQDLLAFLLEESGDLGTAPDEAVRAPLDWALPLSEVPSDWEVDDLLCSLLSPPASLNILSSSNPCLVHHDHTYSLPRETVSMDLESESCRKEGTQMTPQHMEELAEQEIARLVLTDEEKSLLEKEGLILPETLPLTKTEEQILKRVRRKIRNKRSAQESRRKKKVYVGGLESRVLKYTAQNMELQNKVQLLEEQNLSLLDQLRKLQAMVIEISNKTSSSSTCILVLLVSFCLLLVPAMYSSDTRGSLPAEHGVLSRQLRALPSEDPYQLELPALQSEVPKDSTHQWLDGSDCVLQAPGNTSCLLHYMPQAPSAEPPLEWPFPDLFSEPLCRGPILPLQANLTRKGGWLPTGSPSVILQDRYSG
# B3: Splicing factor 45 (Homo sapiens), Q96I25 (parent)
# chain: MSLYDDLGVETSDSKTEGWSKNFKLLQSQLQVKKAALTQAKSQRTKQSTVLAPVIDLKRGGSSDDRQIVDTPPHVAAGLKDPVPSGFSAGEVLIPLADEYDPMFPNDYEKVVKRQREERQRQRELERQKEIEEREKRRKDRHEASGFARRPDPDSDEDEDYERERRKRSMGGAAIAPPTSLVEKDKELPRDFPYEEDSRPRSQSSKAAIPPPVYEEQDRPRSPTGPSNSFLANMGGTVAHKIMQKYGFREGQGLGKHEQGLSTALSVEKTSKRGGKIIVGDATEKDASKKSDSNPLTEILKCPTKVVLLRNMVGAGEVDEDLEVETKEECEKYGKVGKCVIFEIPGAPDDEAVRIFLEFERVESAIKAVVDLNGRYFGGRVVKACFYNLDKFRVLDLAEQV
# Variants of: B1
# Settings: with fhl2_human FHL2, Q14192
row,Variant,effect of a mutation on the interaction
1,MEALSRAGQEMSLAALKQHDPYITSIADLTGQVALYTFCPKANQWEKTDIEGTLFVYRRSASPYHGFTIVNRLNMHNLVEPVNKDLEFQLHEPFLLYRNASLSIYSIWFYDKNDCHRIAKLMADVVEEETRRSQQAARDKQSPSQANGCSDHRPIDILEMLSRAKDEYERNQMGDSNISSPGLQPSTQLSNLGSTETLEEMPSGSQDKSAPSGHKHLTVEELFGTSLPKEQPAVVGLDSEEMERLPGDASQKEPNSFLPFPFEQLGGAPQSETLGVPSAAHHSVQPEITTPVLITPGSITQSNEKHAPTYTIPLSPVLSPTLPAEAPTAQVPPSLPRNSTMMQAVKTTPRQRSPLLNQPVPELSHASLIANQSPFRAPLNVTNTAGTSLPSVDLLQKLRLTPQHDQIQTQPLGKGAMVASFSPAAGQLATPESFIEPPSKTAAARVAASASLSNMVLAPLQSMQQNQDPEVFVQPKVLSSAIPVAGAPLVTATTTAVSSVLLAPSVFQQTVTRSSDLERKASSPSPLTIGTPESQRKPSIILSKSQLQDTLIHLIKNDSSFLSTLHEVYLQVLTKNKDNHNL [A297G],with no effect
2,MEALSRAGQEMSLAALKQHDPYITSIADLTGQVALYTFCPKANQWEKTDIEGTLFVYRRSASPYHGFTIVNRLNMHNLVEPVNKDLEFQLHEPFLLYRNASLSIYSIWFYDKNDCHRIAKLMADVVEEETRRSQQAARDKQSPSQANGCSDHRPIDILEMLSRAKDEYERNQMGDSNISSPGLQPSTQLSNLGSTETLEEMPSGSQDKSAPSGHKHLTVEELFGTSLPKEQPAVVGLDSEEMERLPGDASQKEPNSFLPFPFEQLGGAPQSETLGVPSAAHHSVQPEITTPVLITPASITQSNEKHAPTYTIPLSPVLSPTLPAEAPTAQVPPSLPRNSTMMQAVKTTPRQRSPLLNQPVPELSHASLIANQSPFRAPLNVTNTAGTSLPSVDLLQKLRLTPQHDQIQTQPLGKGAMVASFSPAAGQLATPESFIEPPSKTAAARVAASASLSNMVLAPLQSMQQNQDPEVFVHPKVLSSAIPVAGAPLVTATTTAVSSVLLAPSVFQQTVTRSSDLERKASSPSPLTIGTPESQRKPSIILSKSQLQDTLIHLIKNDSSFLSTLHEVYLQVLTKNKDNHNL [Q474H],with no effect
3,MEALSRAGQEMSLAALKQHDPYITSIADLTGQVALYTFCPKANQWEKTDIEGTLFVYRRSASPYHGFTIVNRLNMHNLVEPVNKDLEFQLHEPFLLYRNASLSIYSIWFYDKNDCHRIAKLMADVVEEETRRSQQAARDKQSPSQANGCSDHRPIDILEMLSRAKDEYERNQMGDSNISSPGLQPSTQLSNLGSTETLEEMPSGSQDKSAPSGHKHLTVEELFGTSLPKEQPAVVGLDSEEMERLPGDASQKEPNSFLPFPFEQLGGAPQSETLGVPSAAHHSVQPEITTPVLITPASITQSNEKHAPTYTIPLSPVLSPTLPAEAPTAQVTPSLPRNSTMMQAVKTTPRQRSPLLNQPVPELSHASLIANQSPFRAPLNVTNTAGTSLPSVDLLQKLRLTPQHDQIQTQPLGKGAMVASFSPAAGQLATPESFIEPPSKTAAARVAASASLSNMVLAPLQSMQQNQDPEVFVQPKVLSSAIPVAGAPLVTATTTAVSSVLLAPSVFQQTVTRSSDLERKASSPSPLTIGTPESQRKPSIILSKSQLQDTLIHLIKNDSSFLSTLHEVYLQVLTKNKDNHNL [P332T],with no effect

# Variants of: B2
# Settings: with creb3_human CREB3, O43889
row,Variant,effect of a mutation on the interaction
1,MPLSRWLRSVGVFLLPAPYWAPRERWLGSLRRPSLVHGYPVLAWHSARCWCQAWTEEPRALCSSLRMNGDQNSDVYAQEKQDFVQHFSQIVRVLTEDEMGHPEIGDAIARLKEVLEYNAIGGKYNRGLTVVVAFRELVEPRKQDADSLQQAWTVGWCVELLQAFFLVADDIMDSSLTRRGQICWYQKPGVGLDAINDANLLEACIYRLLKLYCREQPYYLNLIELFLQSSYQTEIGQTLDLLTAPQGNVDLVRFTEKRYKSIVKYKTAFYSFYLPIAAAMYMAGIDGEKEHANAKKILLEMGEFFQIQDDYLDLFGDPSVTGKIGTDIQDNKCSWLVVQCLQRATPEQYQILKENYGQKEAEKVARVKALYEELDLPAVFLQYEEDSYSHIMALIEQYAAPLPPAVFLGLARKIYKRRK [R150Q],with no effect

# Variants of: B3
# Settings: with sat1_human SAT1, P21673
# sat1_human SAT1, P21673, sequence (P21673 whole entry): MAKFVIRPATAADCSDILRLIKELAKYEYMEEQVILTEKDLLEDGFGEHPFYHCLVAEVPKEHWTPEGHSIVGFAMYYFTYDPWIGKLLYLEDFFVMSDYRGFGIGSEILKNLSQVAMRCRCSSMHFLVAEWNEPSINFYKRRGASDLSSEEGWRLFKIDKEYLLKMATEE
row,Variant,effect of a mutation on the interaction
1,MSLYDDLGVETSDSKTEGWSKNFKLLQSQLQVKKAALTQAKSQRTKQSTVLAPVIDLKRGGSSDDRQIVDTPPHVAAGLKDPVPSGFSAGEVLIPLADEYDPMFPNDYEKVVKRQREERQRQRELERQKEIEEREKRRKDRHEASGFARRPDPDSDEDEDYERERRKRSMGGAAIAPPTSLVEKDKELPRDFPYEEDSRPRSQSSKAAIPPPVYEEQDRPRSPIGPSNSFLANMGGTVAHKIMQKYGFREGQGLGKHEQGLSTALSVEKTSKRGGKIIVGDATEKDASKKSDSNPLTEILKCPTKVVLLRNMVGAGEVDEDLEVETKEECEKYGKVGKCVIFEIPGAPDDEAVRIFLEFERVESAIKAVVDLNGRYFGGRVVKACFYNLDKFRVLDLAEQV [T224I],with no effect
